The target in this experiment is myc-tagged TRIM25 WT (tripartite motif-containing protein 25), Q14258. Put plainly: co-IP; myc IP (anti-myc beads) of myc-TRIM25 WT from lysates of ZAP KO 293T cells co-transfected with FLAG-ZAPS or FLAG-ZAPL WT or mutants; FLAG-ZAP detected by immunoblot; FLAG IP buffer (100 mM Tris-HCl 8.0, 150 mM NaCl, 5 mM EDTA, 1 mM DTT, 5% glycerol, 0.1% NP-40), 4°C, 45 min; FLAG IP band divided by myc IP band (ImageJ). The note with it: remark: other sources report otherwise.

Values joined by “and” are separate entries in the source; they are usually repeats but may differ in a detail not shown here. Equal values may be shown once.

The record followed here is publication PMC9253567.

myc-tagged TRIM25 WT (tripartite motif-containing protein 25), Q14258, sequence (Q14258 whole entry): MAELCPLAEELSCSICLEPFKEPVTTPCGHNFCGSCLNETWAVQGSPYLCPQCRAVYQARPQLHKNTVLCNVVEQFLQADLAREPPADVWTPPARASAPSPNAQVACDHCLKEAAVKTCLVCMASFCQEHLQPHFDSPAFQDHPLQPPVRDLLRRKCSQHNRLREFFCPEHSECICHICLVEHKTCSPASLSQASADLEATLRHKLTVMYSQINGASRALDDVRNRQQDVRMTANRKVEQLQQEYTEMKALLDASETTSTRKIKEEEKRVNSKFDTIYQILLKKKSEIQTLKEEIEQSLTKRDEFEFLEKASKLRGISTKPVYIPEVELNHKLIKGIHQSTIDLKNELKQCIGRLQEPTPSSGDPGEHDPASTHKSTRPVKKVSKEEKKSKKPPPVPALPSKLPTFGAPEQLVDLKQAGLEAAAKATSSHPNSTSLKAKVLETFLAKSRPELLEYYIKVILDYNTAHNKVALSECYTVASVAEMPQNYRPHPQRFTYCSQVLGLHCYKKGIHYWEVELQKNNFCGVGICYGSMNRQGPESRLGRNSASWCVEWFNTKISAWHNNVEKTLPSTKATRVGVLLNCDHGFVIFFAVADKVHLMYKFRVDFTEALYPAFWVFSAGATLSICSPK

B1: FLAG-tagged ZAPS WT (zinc finger antiviral protein, short isoform), Q7Z2W4-2 1-699 (natural protein)
chain: MADPEVCCFITKILCAHGGRMALDALLQEIALSEPQLCEVLQVAGPDRFVVLETGGEAGITRSVVATTRARVCRRKYCQRPCDNLHLCKLNLLGRCNYSQSERNLCKYSHEVLSEENFKVLKNHELSGLNKEELAVLLLQSDPFFMPEICKSYKGEGRQQICNQQPPCSRLHICDHFTRGNCRFPNCLRSHNLMDRKVLAIMREHGLNPDVVQNIQDICNSKHMQKNPPGPRAPSSHRRNMAYRARSKSRDRFFQGSQEFLASASASAERSCTPSPDQISHRASLEDAPVDDLTRKFTYLGSQDRARPPSGSSKATDLGGTSQAGTSQRFLENGSQEDLLHGNPGSTYLASNSTSAPNWKSLTSWTNDQGARRKTVFSPTLPAARSSLGSLQTPEAVTTRKGTGLLSSDYRIINGKSGTQDIQPGPLFNNNADGVATDITSTRSLNYKSTSSGHREISSPRIQDAGPASRDVQATGRIADDADPRVALVNDSLSDVTSTTSSRVDDHDSEEICLDHLCKGCPLNGSCSKVHFHLPYRWQMLIGKTWTDFEHMETIEKGYCNPGIHLCSVGSYTINFRVMSCDSFPIRRLSTPSSVTKPANSVFTTKWIWYWKNESGTWIQYGEEKDKRKNSNVDSSYLESLYQSCPRGVVPFQAGSRNYELSFQGMIQTNIASKTQKDVIRRPTFVPQWYVQQMKRGPE
Consider B1, for which the ZAP-TRIM25 interaction (co-IP, FLAG-ZAP band over myc-TRIM25 band, ImageJ) was 0.131 and 0.304.
